Results as given in the supplement of paper PMC10567573.

B1: FBXO34 (parent)
chain: ASSVESTLPVLEASSWKKQVSHDF
B2: OAS1 (parent)
chain: YIGTHEYPHFSHRPSTLQAASTPQ

Variants of: B1
Test: protein stability index of a GFP-peptide fusion (GPS, HEK-293T) (PSI 1-6); higher = more stable
Details: c terminus: a fixed tail appended
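Further: lentivirally expressed fusions sorted by FACS into six bins by GFP to DsRed ratio, PSI derived from sequencing read proportions per bin multiplied by bin number.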

Protein stability index of substitutions, site by site:
S2: N 2.58, I 2.26, D 3.18, Q 3.09, R 2.8, K 3.04, Y 2.28, T 3.39, A 2.81, P 3.46, G 2.81, C 1.85, E 3.94, F 1.92, L 1.47, H 2.4, W 2.56, V 2.92
S6: Y 2.48, C 2.56, D 2.46, T 3.06, K 2.76, L 3.18, I 1.7, R 2.43, W 3.02, A 3.41, M 2.36, N 3.83, F 1.76, P 2.96, H 2.42
V4: I 2.75, W 2.5, A 3.39, F 2.1, T 2.88, M 2.51, D 2.4, Q 3.53, G 3.15, Y 2.46, R 2.64, C 2.45, P 2.77, E 3.67, S 3.01, H 3.39
T7: Y 3.37, L 2.42, H 3.21, N 3.55, R 2.7, D 3.63, K 2.82, V 2.85, P 2.31, C 3.31, Q 4.86, A 2.9, E 2.88, S 3.94, M 2.48, F 2.92
L8: H 2.89, C 3.4, V 1.83, I 2.82, K 3.22, E 3.38, T 3.38, Y 2.39, M 1.91, G 3.59, S 3.57, P 2.66, R 3.05, F 2.52, Q 2.04
E5: M 2.84, F 1.77, H 2.4, A 2.68, I 2.17, L 2.9, W 2.03, S 3.21, Q 2.51, N 2.28, Y 1.9, V 2.9, D 3.22, K 2.48, C 2.38, G 2.61
P9: D 3.03, C 3.55
A1: F 2.11, N 2.9, R 2.97, C 2.1, M 2.71, E 2.83, V 2.27, L 3.35, S 3.36, I 1.95, P 2.64, G 2.99, K 2.1, D 3.32, Q 2.44, T 2.79, Y 1.78
S3: H 3.38, C 2.19, I 2.69, T 3.22, D 3.29, E 3.72, L 2.62, G 3.27, K 2.56, Y 2.46, A 1.86, P 3.31, N 3.07, F 2.38, M 2.63, W 2.02, V 2.49, Q 2.88

Variants of: B2
Test: as above
Details: c terminus: a fixed tail appended

Protein stability index, by site and new letter:
S15: N 2.24, R 1.96, C 1.61, M 1.6, D 2.1, F 2.67, Q 1.99, I 1.85, T 1.94, A 2.13, W 3.2, L 1.69, H 1.82, Y 1.79, G 1.79, K 1.82, V 2, E 2.05, P 1.62
T16: K 2.08, D 2.13, A 2.29, R 2.4, C 1.68, L 2.22, P 2.14, F 1.92, S 2.34, N 1.62, V 1.73, M 1.42, Q 2.3, G 1.62, H 2.02, W 2.23, I 1.6, E 2.46, Y 1.98
A19: V 1.81, S 1.9, Q 2.04, K 1.68, H 1.89, P 2.11, D 2.3, N 1.9, W 1.28, T 1.72, Y 2.42, E 2.58, R 2.29, I 2.04, C 2.07, L 1.85, F 1.99, G 1.98, M 2.15
A20: I 2.19, R 1.82, L 2.39, P 1.97, W 2.43, Q 1.93, H 1.64, N 2.08, K 2.17, Y 1.89, M 1.93, E 2.56, T 2.04, F 1.73, G 1.88, C 1.84, V 1.79, D 1.75, S 2.11
Q24: K 1.81, W 2.25, V 2.2, L 2.29, Y 2.4, R 1.86, T 2.04, G 2.2, M 1.87, F 1.77, D 2.06, E 2.25, S 1.94, N 2.07, I 1.92, C 1.69, A 1.66, H 2.15
Q18: E 2.22, W 2.75, V 1.99, K 2.04, P 1.81, D 1.71, A 2.85, Y 2.37, G 2.06, R 1.95, H 2.38, N 2.34, I 1.94, S 1.65, L 2.08, F 2.25, T 1.9, C 2.08, M 1.74
P14: S 1.64, M 1.74, W 2.81, Q 2.22, I 1.72, L 1.7, N 2.1, R 1.9, K 2.13, V 2.48, Y 2.09, T 1.98
S21: M 1.94, P 1.67, D 1.89, A 2.1, Q 2, F 1.68, R 2, T 2.07, V 1.89, L 1.53, K 1.81, W 2.42, G 2.23, E 2.24, Y 1.95, I 1.97, C 2.77, N 1.85, H 2
P23: E 2.37, F 1.72, C 1.88, S 2.27, G 1.53, K 1.91, Y 1.75, R 1.86, H 2.4, W 1.97, Q 2.23, L 1.73, A 2.14, D 2.15, T 2.48, I 2.74, V 1.81, N 2.54, M 1.89
T22: N 2.1, Y 1.71, R 1.68, A 2.51, L 1.78, K 2.35, F 1.93, Q 2.31, G 1.59, C 1.62, E 1.8, I 2.13, M 2.27, H 1.6, S 1.38, V 1.93, P 2.17, D 2.64, W 1.53
L17: N 2.42, F 1.83, W 2.01, A 1.84, T 1.98, M 2.24, P 2.5, R 2, Q 2.29, C 2.14, Y 2.14, S 2.12, G 2.17, D 2.41, V 2.3, I 1.9, E 2.06, K 1.79, H 1.93
